Experimental data from patent publication US20020086323.

Biological target: T1, LtrA (Lactococcus lactis) (UniProt P0A3U0)
T1 sequence: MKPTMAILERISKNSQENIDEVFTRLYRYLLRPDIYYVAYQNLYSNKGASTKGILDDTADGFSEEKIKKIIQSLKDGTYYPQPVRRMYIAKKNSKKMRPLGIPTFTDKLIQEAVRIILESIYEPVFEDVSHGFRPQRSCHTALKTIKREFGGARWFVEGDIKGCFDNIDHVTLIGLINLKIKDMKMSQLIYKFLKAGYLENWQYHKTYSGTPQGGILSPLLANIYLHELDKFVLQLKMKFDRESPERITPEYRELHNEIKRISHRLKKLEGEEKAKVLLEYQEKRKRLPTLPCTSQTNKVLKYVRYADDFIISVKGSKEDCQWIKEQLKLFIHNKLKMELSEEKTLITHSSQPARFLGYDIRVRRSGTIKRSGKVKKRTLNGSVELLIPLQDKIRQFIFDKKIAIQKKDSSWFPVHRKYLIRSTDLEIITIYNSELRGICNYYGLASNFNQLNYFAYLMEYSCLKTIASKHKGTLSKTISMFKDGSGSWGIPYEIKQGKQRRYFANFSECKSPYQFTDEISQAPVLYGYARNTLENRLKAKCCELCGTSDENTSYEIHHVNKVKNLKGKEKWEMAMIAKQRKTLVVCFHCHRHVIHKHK
Experiment: cleavage_in_vitro

For Ll.ltrB intron RNA ; ltrB +2 to +5 TGCG, the binding signal was < 10 % of WT.
